Experimental data as given in patent US8927007B2, “Formulations for treatment with glucosinolates” (priority 2010, dated 2015).

What was measured:
[1] = Activity of myrosinase immobilized on Concanavalin A-Sepharose gel (sinigrin hydrolysis, absorbance at 227 nm); type: biochemical
Method: (§1) Con-A gel (1 ml) was packed in a 3 ml syringe, washed with 5 portions of 5 ml of 10 mM midazole, 1 mD EDTA, 1 mM DTT, 30% glycerol, pH 6.0. Subsequently, 10 ml of purified myrosinase (2.9 units/ml) (from 7 day-old daikon sprouts as described in Shikita et al. Biochem J. (1999) 341:725-732) were applied to the column and the effluent collected and reapplied to the column 3 more times until no activity was detected in the effluent. After washing 5 times with 5 ml of 33 mM potassium phosphate buffer (pH 6.0), 1 mM EDTA, and 0.5 mM ascorbate, the gel was transferred to a 10 ml syringe and mixed with 10 ml of 10 mM sinigrin in 33 mM potassium phosphate buffer. Aliquots (20 μl of the solution was withdrawn from the mixture every 30 sec., diluted with 0.98 ml of the 33 mM phosphate buffer, and the absorbance was measured at 227 nm against the same buffer. After 10 collections (5 min), the gel was washed with 3 portions of 5 ml of 33 mM potassium phosphate buffer, and 3 portions of 5 ml 10 mM midazole, 1 mM EDTA, 1 mD DTT, 30% glycerol, pH 6.0, and stored at 4° C. for the next test.

[2] = Long-term stability of myrosinase on Concanavalin A-Sepharose gels; type: physicochemical
Method: as §1, with “After 10 collections (5 min), the gel was washed with 3 portions of 5 ml of 33 mM potassium phosphate buffer, and 3 portions of 5 ml 10 mM midazole, 1 mM EDTA, 1 mD DTT, 30% glycerol, pH 6.0, and stored at 4° C. for the next test.” left out

In the case of “myrosinase (β-thioglucoside glucohydrolase) [Immobilized enzyme]”, the sinigrin hydrolyzed ([1]; immobilized on Con-A gel, 10 ml of 10 mM sinigrin in 33 mM potassium phosphate buffer, 10 collections (5 min)) is reported as “more than 25 μmol”, the “enzymatic activity when immobilized on Con-A gels” value ([1]; immobilized on Con-A gels) is reported as “retain its enzymatic activity” and the stability without refrigeration ([2]; immobilized on Con-A gels, without refrigeration) is reported as “stable indefinitely”. For the same substance, the “changes of activity on storage” value ([2]; over at least the next 7 days, kept at 4° C. in 20% glycerol) was “no significant changes of activity”, the “stability of immobilized enzyme at room temperature” value ([2]; room temperature, period of several weeks) was “stable” and the “elution of the enzyme from the column” value ([2]; under conditions required for hydrolysis) was “no significant elution”.
